Laboratory results reported in patent US20160052997A1 (CELLTRION, published 2016).

Target: HA of A/CA/04/09 (H1N1) virus (Influenza A virus A/CA/04/09 (H1N1))
Assay: cell-based or functional assay

B1: CT120 (antibody, V domains shown)
VH: QVQLVQSGAEVKMPGSSVKVSCKTSGVFFSSHAISWVRQAPGQGLEWMGGISPMFGTTHYAQKFQGRVTITADQSTTTAYMELTSLTSEDTAVYYCARDGAGSYYPLNWFDPWGQGTLVTVSS
VL: EIVLTQSPATLSLSPGERATLSCRASENIWNNLAWYQQKPGQAPRLLISGASTGATGVPSRFRGSGSRTEFTLTISSLQSEDFAIYFCQQYNSWPRTFGPGTKVEIKR
In the case of B1, the “EC50, microneutralization test” value is reported as 0.21 µg/mL.
